Measurements taken from US20260022184.

T1: CM5
T1 chain: MVLSAPTASG

T2: CM10
T2 chain: MVPSALTVSG

T3: CM6
T3 chain: MVPSAVTASG

T4: CM2
T4 chain: MVLSAVTASG

T5: CM9
T5 chain: MVVSALTASG

T6: CM8
T6 chain: MVASALTASG

T7: CM7
T7 chain: MVPSAYTASG

B1: recombinant human MMP2 (protein)
chain: YNFFPRKPKWDKNQITYRIIGYTPDLDPETVDDAFARAFQVWSDVTPLRFSRIHDGEADIMINFGRWEHGDGYPFDGKDGLLAHAFAPGTGVGGDSHFDDDELWTLGEGQVVRVKYGNADGEYCKFPFLFNGKEYNSCTDTGRSDGFLWCSTTYNFEKDGKYGFCPHEALFTMGGNAEGQPCKFPFRFQGTSYDSCTTEGRTDGYRWCGTTEDYDRDKKYGFCPETAMSTVGGNSEGAPCVFPFTFLGNKYESCTSAGRSDGKMWCATTANYDDDRKWGFCPDQGYSLFLVAAHEFGHAMGLEHSQDPGALMAPIYTYTKNFRLSQDDIKGIQELYGASPDIDLGTGPTPTLGPVTPEICKQDIVFDGIAQIRGEIFFFKDRFIWRTVTPRDKPMGPLLVATFWPELPEKIDAVYEAPQEEKAVFFAGNEYWIYSASTLERGYPKPLTSLGLPPDVQRVDAAFNWSKNKKTYIFAGDKFWRYNEVKKKMDPGFPKLIADAWNAIPDNLDAVVDLQGGGHSYFFKGAYYLKLENQSLKSVKFGSIKSDWLGC
B2: recombinant human MMP9 (protein)
chain: MRTPRCGVPDLGRFQTFEGDLKWHHHNITYWIQNYSEDLPRAVIDDAFARAFALWSAVTPLTFTRVYSRDADIVIQFGVAEHGDGYPFDGKDGLLAHAFPPGPGIQGDAHFDDDELWSLGKGVVVPTRFGNADGAACHFPFIFEGRSYSACTTDGRSDGLPWCSTTANYDTDDRFGFCPSERLYTQDGNADGKPCQFPFIFQGQSYSACTTDGRSDGYRWCATTANYDRDKLFGFCPTRADSTVMGGNSAGELCVFPFTFLGKEYSTCTSEGRGDGRLWCATTSNFDSDKKWGFCPDQGYSLFLVAAHEFGHALGLDHSSVPEALMYPMYRFTEGPPLHKDDVNGIRHLYGPRPEPEPRPPTTTTPQPTAPPTVCPTGPPTVHPSERPTAGPTGPPSAGPTGPPTAGPSTATTVPLSPVDDACNVNIFDAIAEIGNQLYLFKDGKYWRFSEGRGSRPQGPFLIADKWPALPRKLDSVFEERLSKKLFFFSGRQVWVYTGASVLGPRRLDKLGLGADVAQVTGALRSGRGKMLLFSGRRLWRFDVKAQMVDPRSASEVDRMFPGVPLDTHDVFQYREKAYFCQDRFYWRVSSRSELNQVDQVGYVTYDILQCPED

Key:
CM5 = target: T1, CM5
CM10 = target: T2, CM10
CM6 = target: T3, CM6
CM2 = target: T4, CM2
CM9 = target: T5, CM9
CM8 = target: T6, CM8
CM7 = target: T7, CM7

Chain of SB1902-C2 (chain, as listed by the source, chain 1 of 2): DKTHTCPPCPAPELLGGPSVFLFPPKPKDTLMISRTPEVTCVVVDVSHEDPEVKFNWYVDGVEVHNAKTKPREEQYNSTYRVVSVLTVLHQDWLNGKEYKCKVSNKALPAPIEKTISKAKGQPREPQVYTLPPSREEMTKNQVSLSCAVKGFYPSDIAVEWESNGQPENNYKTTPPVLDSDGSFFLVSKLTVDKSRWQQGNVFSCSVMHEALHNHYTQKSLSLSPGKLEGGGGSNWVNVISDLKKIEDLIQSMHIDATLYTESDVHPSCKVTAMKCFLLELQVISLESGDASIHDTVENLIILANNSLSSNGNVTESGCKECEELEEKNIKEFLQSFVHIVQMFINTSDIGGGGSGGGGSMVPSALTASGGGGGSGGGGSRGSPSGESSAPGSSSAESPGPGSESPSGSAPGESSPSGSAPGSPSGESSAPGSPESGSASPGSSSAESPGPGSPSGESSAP
Chain of SB1902-C2 (chain, as listed by the source, chain 2 of 2): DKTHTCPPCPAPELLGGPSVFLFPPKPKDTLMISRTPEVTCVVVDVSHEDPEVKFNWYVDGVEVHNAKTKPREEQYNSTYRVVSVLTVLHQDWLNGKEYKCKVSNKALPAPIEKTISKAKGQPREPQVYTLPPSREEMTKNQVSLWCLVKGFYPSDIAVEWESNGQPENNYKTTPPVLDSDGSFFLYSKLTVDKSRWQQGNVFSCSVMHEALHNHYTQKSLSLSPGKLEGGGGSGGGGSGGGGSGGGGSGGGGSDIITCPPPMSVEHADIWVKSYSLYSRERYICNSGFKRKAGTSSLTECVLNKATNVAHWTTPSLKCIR
Chain of SB1902-C5 (chain, as listed by the source, chain 1 of 2): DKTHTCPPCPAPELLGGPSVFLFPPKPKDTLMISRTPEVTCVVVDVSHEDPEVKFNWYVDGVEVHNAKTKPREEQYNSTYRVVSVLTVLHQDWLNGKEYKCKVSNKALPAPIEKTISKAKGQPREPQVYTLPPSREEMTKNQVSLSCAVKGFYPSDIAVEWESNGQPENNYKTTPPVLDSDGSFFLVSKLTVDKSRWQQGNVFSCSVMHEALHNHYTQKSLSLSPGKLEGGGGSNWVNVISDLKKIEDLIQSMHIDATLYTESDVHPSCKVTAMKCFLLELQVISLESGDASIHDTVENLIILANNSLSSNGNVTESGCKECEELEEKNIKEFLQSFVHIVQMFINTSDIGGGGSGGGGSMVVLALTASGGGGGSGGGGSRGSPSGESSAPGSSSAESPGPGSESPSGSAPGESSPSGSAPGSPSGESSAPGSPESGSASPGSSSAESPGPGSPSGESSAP
Chain of SB1902-C5 (chain, as listed by the source, chain 2 of 2): as the sequence (chain, as listed by the source, chain 2 of 2) above
Chain of SB1902-C4 (chain, as listed by the source, chain 1 of 2): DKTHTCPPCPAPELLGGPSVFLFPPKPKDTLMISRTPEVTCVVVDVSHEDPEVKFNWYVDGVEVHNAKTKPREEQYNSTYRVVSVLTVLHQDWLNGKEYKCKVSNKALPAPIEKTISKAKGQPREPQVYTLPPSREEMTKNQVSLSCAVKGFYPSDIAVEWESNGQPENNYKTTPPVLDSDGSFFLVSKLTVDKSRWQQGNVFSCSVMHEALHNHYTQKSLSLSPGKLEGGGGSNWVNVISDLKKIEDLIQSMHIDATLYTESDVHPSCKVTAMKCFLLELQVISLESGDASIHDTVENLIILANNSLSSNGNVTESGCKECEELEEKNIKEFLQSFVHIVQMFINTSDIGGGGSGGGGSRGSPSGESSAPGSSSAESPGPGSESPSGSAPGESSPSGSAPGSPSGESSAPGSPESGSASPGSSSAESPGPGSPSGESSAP
Chain of SB1902-C4 (chain, as listed by the source, chain 2 of 2): as the sequence (chain, as listed by the source, chain 2 of 2) above

Protein | in vitro protease digestion (data not shown) (CM5) | in vitro protease digestion, polyacrylamide gel (SB1902-C4) | in vitro protease digestion (data not shown) (CM10) | in vitro protease digestion (data not shown) (CM6) | in vitro protease digestion (data not shown) (CM2) | in vitro protease digestion, polyacrylamide gel (SB1902-C5) | in vitro protease digestion (data not shown) (CM9) | digestion efficiency by SDS-PAGE (1 µg activated MMP2, 250 µg prodrug, 37° C., 5 hrs) (SB1902-C2) | in vitro protease digestion, polyacrylamide gel (SB1902-C2) | in vitro protease digestion (data not shown) (CM8) | in vitro protease digestion (data not shown) (CM7)
B1 | The other cleavable moieties (such as CM2, CM5-CM10) was also cleavable in vitro by both MMP2 and MMP9 (data not shown) | the non-cleavable G4S linker in SB1902-C4 was resistant to both MMP2 and MMP9 enzyme digestion | The other cleavable moieties (such as CM2, CM5-CM10) was also cleavable in vitro by both MMP2 and MMP9 (data not shown) | The other cleavable moieties (such as CM2, CM5-CM10) was also cleavable in vitro by both MMP2 and MMP9 (data not shown) | The other cleavable moieties (such as CM2, CM5-CM10) was also cleavable in vitro by both MMP2 and MMP9 (data not shown) | The mutated substrate CM4 was cleavable in vitro by both MMP2 and MMP9 enzymes, with an enzyme dose-dependent manner | The other cleavable moieties (such as CM2, CM5-CM10) was also cleavable in vitro by both MMP2 and MMP9 (data not shown) | about 90% of the prodrug SB1902-C2 was digested | The mutated substrate CM1 was cleavable in vitro by both MMP2 and MMP9 enzymes, with an enzyme dose-dependent manner | The other cleavable moieties (such as CM2, CM5-CM10) was also cleavable in vitro by both MMP2 and MMP9 (data not shown) | The other cleavable moieties (such as CM2, CM5-CM10) was also cleavable in vitro by both MMP2 and MMP9 (data not shown)
B2 | The other cleavable moieties (such as CM2, CM5-CM10) was also cleavable in vitro by both MMP2 and MMP9 (data not shown) | the non-cleavable G4S linker in SB1902-C4 was resistant to both MMP2 and MMP9 enzyme digestion | The other cleavable moieties (such as CM2, CM5-CM10) was also cleavable in vitro by both MMP2 and MMP9 (data not shown) | The other cleavable moieties (such as CM2, CM5-CM10) was also cleavable in vitro by both MMP2 and MMP9 (data not shown) | The other cleavable moieties (such as CM2, CM5-CM10) was also cleavable in vitro by both MMP2 and MMP9 (data not shown) | The mutated substrate CM4 was cleavable in vitro by both MMP2 and MMP9 enzymes, with an enzyme dose-dependent manner | The other cleavable moieties (such as CM2, CM5-CM10) was also cleavable in vitro by both MMP2 and MMP9 (data not shown) | – | The mutated substrate CM1 was cleavable in vitro by both MMP2 and MMP9 enzymes, with an enzyme dose-dependent manner | The other cleavable moieties (such as CM2, CM5-CM10) was also cleavable in vitro by both MMP2 and MMP9 (data not shown) | The other cleavable moieties (such as CM2, CM5-CM10) was also cleavable in vitro by both MMP2 and MMP9 (data not shown)
